Legend:
[1] = target: T1, CBD-intein-S-TEV site-liraglutide fusion protein
T1 chain: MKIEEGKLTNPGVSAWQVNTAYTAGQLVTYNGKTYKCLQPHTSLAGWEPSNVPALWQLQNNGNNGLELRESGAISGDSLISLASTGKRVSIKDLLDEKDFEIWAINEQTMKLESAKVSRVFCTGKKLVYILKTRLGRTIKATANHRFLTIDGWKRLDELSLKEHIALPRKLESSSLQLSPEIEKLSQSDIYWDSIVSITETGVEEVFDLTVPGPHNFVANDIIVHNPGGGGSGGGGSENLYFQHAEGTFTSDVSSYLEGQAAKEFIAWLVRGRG

[2] = target: T2, CBD-intein-Spacer(S)-TEV site-teriparatide fusion protein
T2 chain: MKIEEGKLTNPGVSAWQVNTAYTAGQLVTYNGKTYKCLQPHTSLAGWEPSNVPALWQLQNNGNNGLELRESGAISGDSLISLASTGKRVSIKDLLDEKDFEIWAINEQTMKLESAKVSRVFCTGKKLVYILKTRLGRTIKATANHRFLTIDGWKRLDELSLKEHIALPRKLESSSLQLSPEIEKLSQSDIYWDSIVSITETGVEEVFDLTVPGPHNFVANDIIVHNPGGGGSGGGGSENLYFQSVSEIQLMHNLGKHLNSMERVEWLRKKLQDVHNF

B1: TEV protease (protein)
chain: GESLFKGPRDYNPISSTICHLTNESDGHTTSLYGIGFGPFIITNKHLFRRNNGTLLVQSLHGVFKVKNTTTLQQHLIDGRDMIIIRMPKDFPPFPQKLKFREPQREERICLVTTNFQTKSMSSMVSDTSCTFPSSDGIFWKHWIQTKDGQCGSPLVSTRDGFIVGIHSASNFTNTNNYFTSVPKNFMELLTNQEAQQWVSGWRLNADSVLWGGHKVFMSKPEEPFQPVKEATQLMNELVYSQ
- TEV protease-mediated cleavage of the fusion protein (SDS-PAGE, pH 8.0) [1]: cleavage by the TEV protease resulted in the release of liraglutide
- TEV protease-mediated cleavage of the fusion protein (SDS-PAGE and western blot, pH 8.0 and pH 7.0) [2]: cleavage by the TEV protease resulted in the release of teriparitide

— patent publication US20190352365
